# Measurements taken from patent publication US11324804B2, “Combined CD6 and imipenem therapy for treatment of infectious diseases and related inflammatory processes” (Sepsia Therapeutics, S.L., priority 2016, dated 2022).
# B1: rshCD5: purified recombinant soluble human CD5 protein, used as comparison protein (protein, UniProt P06127 25-372, looked up)
# extracellular domain: RLSWYDPDFQARLTRSNSKCQGQLEVYLKDGWHMVCSQSWGRSSKQWEDPSQASKVCQRLNCGVPLSLGPFLVTYTPQSSIICYGQLGSFSNCSHSRNDMCHSLGLTCLEPQKTTPPTTRPPPTTTPEPTAPPRLQLVAQSGGQHCAGVVEFYSGSLGGTISYEAQDKTQDLENFLCNNLQCGSFLKHLPETEAGRAQDPGEPREHQPLPIQWKIQNSSCTSLEHCFRKIKPQKSGRVLALLCSGFQPKVQSRLVGGSSICEGTVEVRQGAQWAALCDSSSARSSLRWEEVCREQQCGSVNSYRVLDAGDPTSRGLFCPHQKLSQCHELWERNSYCKKVFVTCQDPNP
# modifications: extracellular domain
# B2: rshCD6: recombinantly obtained soluble human CD6 ectodomain (SEQ ID NO: 1) (protein, listed as Homo sapiens)
# chain: DQLNTSSAESELWEPGERLPVRLTNGSSSCSGTVEVRLEASWEPACGALWDSRAAEAVCRALGCGGAEAASQLAPPTPELPPPPAAGNTSVAANATLAGAPALLCSGAEWRLCEVVEHACRSDGRRARVTCAENRALRLVDGGGACAGRVEMLEHGEWGSVCDDTWDLEDAHVVCRQLGCGWAVQALPGLHFTPGRGPIHRDQVNCSGAEAYLWDCPGLPGQHYCGHKEDAGVVCSEHQSWRLTGGADRCEGQVEVHFRGVWNTVCDSEWYPSEAKVLCQSLGCGTAVERPKGLPHSLSGRMYYSCNGEELTLSNCSWRFNNSNLCSQSLAARVLCSASRSLHNLSTPEVPASVQTVTIESSVTVKIENKESR
# Key:
# [1] = test system: CLP-induced polymicrobial septic shock; assay: Mouse survival after cecal ligation and puncture (CLP)-induced septic shock
# Protocol: CLP-induced septic shock was induced in 8-10 week old C57BL/6J male mice (20-25 g; Charles River) following previously reported methods (Rittirsch D, et al., 2009. Immunodesign of experimental sepsis by cecal ligation and puncture. Nat Protoc 4:31-36). The severity of the CLP model was adjusted to achieve a high-grade mortality (meaning ≥90% mortality in the first 48-72 h) by ligating 75% of cecum. Mice were anesthetized with 100 mg/kg ketamine (Imalgéne 1000, Merial) and 10 mg/kg xylazine (Rompun, Bayer) subsequently resuscitated with 1 mL saline serum intraperitoneally (i.p.). To mitigate pain effects, 0.05 mg/kg/12 h Buprenorphin was administered subcutaneously. […] Daily weight loss monitoring (usually was of 10-15% in the first 48 h post-CLP) allowed exclusion of animals not undergoing clinical sepsis.
# The survival data were represented in Kaplan-Meier graphs and analysed by the Log-Rank χ^2 test. Statistical significant differences (P<0.01) were determined by 2-tailed non parametric Mann-Whitney test.
# [2] = test system: pro- (TNF-α, IL-1β, IL-6) and anti- (IL-10) inflammatory cytokines; assay: ELISA of cytokine plasma levels post CLP-induced septic shock; format: in vivo, C57BL/6J mice
# Protocol: (§1) Plasma levels of rshCD6 were determined by sandwich ELISA, using unlabelled (161.8) and biotin-labelled (SPV-L14.2) anti-CD6 monoclonal antibodies (2 μg/mL, each) as capture and detection antisera, respectively. Serial dilutions of purified rshCD6 were used as a standard. Diluted or undiluted plasma samples were used for monitoring IL-6 (1:70; Mouse IL-6 ELISA Set, BD Bioscience-555240), TNF-α (1:10; Mouse TNF-α ELISA Set, BD Bioscience-558534), IL-10 (neat; Mouse IL-10 ELISA Set, BD Bioscience-555252), and IL-1β (neat; Mouse IL-1β ELISA Set, BD Bioscience-559603) levels by commercially available ELISA kits, following manufacturer's instructions. Plates were developed with horseradish peroxidase-labeled streptavidin (Roche Diagnostics) and TMB Substrate Reagent Set (BD OptEIA, BD Biosciences), and further measurement of optical density at 450 nm (OD450 nm).
# [3] = test system: bacterial load; assay: Bacterial load (cfu) post CLP-induced septic shock; format: in vivo, C57BL/6J mice
# Protocol: Blood samples were taken from live mice by facial vein puncture at 4 h post-CLP. Peritoneal, spleen and kidney samples were obtained from euthanized mice at 20 h post-CLP. For peritoneal lavage, euthanized mice were i.p. infused with 3 mL cold PBS. After gently abdominal massaging for 5 min, the peritoneal fluid was collected taking care to avoid clogging by the fat tissue and not to damage internal organs. Blood-contaminated peritoneal samples were discarded. The collected peritoneal fluid was centrifuged (3500 rpm, 10 min at 4° C.) and the pellet resuspended in 200 μL PBS. Spleen (100 mg) and kidney (250 mg) homogenization was performed by pressing the organs with a syringe plunger through a 40 μm cell strainer in 3 mL cold PBS. The resulting homogenates were centrifuged (3500 rpm, 10 min at 4° C.) and pellets resuspended in 750 μL PBS. Serial dilutions of blood, peritoneal lavage, and spleen and kidney homogenates were prepared in sterile PBS for plating on agar with 5% sheep blood (Becton Dikinson, UK) at 37° C. overnight. Viable bacterial counts were expressed as colony-forming units (cfu) per mL or mg.
# [4] = set-up: species or system C57BL/6J mice; details: mouse, in vivo, 1.25 mg/kg
# Protocol: as §1
# [5] = test system: septic shock induced by G+ and G− bacterial endotoxins (LTA+PGN, and LPS) and whole alive bacteria (Staphylococcus aureus, Acinetobacter baumannii); details: prophylactic infusion; mouse models of septic shock; cited from earlier work
# [6] = test system: LPS-induced septic shock; details: intraperitoneal (i.p.) administration, mice; cited from earlier work
# [7] = single dose 1.25 mg/kg i.p. 1 h before (−1 h) CLP induction, FIG. 1A
# [8] = prophylactic (−1 h) 1.25 mg/kg i.p., +4 h, +20 h post-CLP, FIG. 1C
# [9] = therapeutic (+1 h) 1.25 mg/kg i.p., 4 and 20 h post-CLP, FIG. 2C
# [10] = prophylactic (−1 h) 1.25 mg/kg i.p., FIG. 1D
# [11] = therapeutic (+1 h) 1.25 mg/kg i.p., FIG. 2D
molecule,measurement,setting,value
B1,survival,[1]; [7],11.11%
B2,plasma level of IL-1β compared to saline-treated group,[2]; [8],significantly lowered
same,plasma level of IL-6 compared to saline-treated group,[2]; [8],significantly lowered
same,plasma level of IL-10 compared to saline-treated group,[2]; [8],higher levels
same,plasma level of TNF-α compared to saline-treated group,[2]; [8],significantly lowered
same,plasma level of IL-1β compared with saline-treated group,[2]; [9],"lower pro-inflammatory cytokine levels, which reached statistical significance"
same,plasma level of IL-6 compared with saline-treated group,[2]; [9],"lower pro-inflammatory cytokine levels, which reached statistical significance"
same,plasma level of IL-10 compared with saline-treated group,[2]; [9],no differences observed
same,plasma level of TNF-α compared with saline-treated group,[2]; [9],lower pro-inflammatory cytokine levels
same,bacterial load from blood compared to saline-treated group,[3]; [10],lowered
same,bacterial load from kidney compared to saline-treated group,[3]; [10],lowered
same,bacterial load from spleen compared to saline-treated group,[3]; [10],lowered
same,bacterial load (cfu) from blood with regard to saline-treated group,[3]; [11],lower cfu
same,bacterial load (cfu) from kidney with regard to saline-treated group,[3]; [11],lower cfu
same,bacterial load (cfu) from spleen with regard to saline-treated group,[3]; [11],lower cfu
same,maximal plasma levels achieved via i.v. versus via i.p.,[4],higher
same,time of decrease to nearly basal plasma levels,[4]; ip,≤ 6 h
same,time of maximal rshCD6 plasma levels,[4]; ip,3 h
same,time of decline to nearly basal plasma levels,[4]; iv,≤ 6 h
same,time of maximal and sustained plasma levels,[4]; iv,1 to 3 h
same,mortality,[5],significantly reduces
same,"serum levels of pro-inflammatory cytokines (IL-1β, IL-6 and TNF-α)",[5],significantly reduces
same,lethal effects caused by LPS-induced septic shock,[6],counteracts the lethal effects
same,prophylactic dose giving statistical significant results on survival,"[1]; i.p. 1 h before CLP, FIG. 1B",above 0.625 mg/kg
same,prophylactic dose reaching maximal efficacy on survival,"[1]; i.p. 1 h before CLP, FIG. 1B",2.5 mg/kg
same,optimal rshCD6 dose in mice,[1]; mice,1.25 to 2.50 mg/kg
same,survival,"[1]; repeated dosage 1.25 mg/kg i.p. at +1 h, +3 h and +6 h post-CLP, FIG. 2B",26.32%
same,survival,[1]; [7],47.06%
same,survival,"[1]; single dose 1.25 mg/kg i.v. at +1 h post-CLP, FIG. 3B",30%
same,survival,"[1]; single dose 1.25 mg/kg i.v. at +3 h post-CLP, FIG. 3B",20%
same,survival,"[1]; single dose 1.25 mg/kg i.v. at +6 h post-CLP, FIG. 3B",40%
same,survival,"[1]; single infusion 1.25 mg/kg i.p. at +1 h post-CLP, FIG. 2A",29.03%
same,survival,"[1]; single infusion 1.25 mg/kg i.p. at +3 h post-CLP, FIG. 2A",14.28%
same,survival,"[1]; single infusion 1.25 mg/kg i.p. at +6 h post-CLP, FIG. 2A",17.65%
